In this test the target is Xklp2 (Xenopus kinesin-like protein 2), endogenous full-length protein (Xenopus (endogenous in Xenopus egg extract)) (UniProt Q91785). Description: SEC + other: sucrose gradient centrifugation.

Take “Xklp2 (Xenopus kinesin-like protein 2), endogenous full-length protein (from UniProt Q91785 1-1388) (natural protein)”: the stoichiometry N amounted to 2.

Values taken from publication PMC2148133.
